Measured values from the Human Domainome abundance scans (Beltran et al. 2025).

B1: GA-binding protein alpha chain, residues 172 to 250; numbered along this chain, Q06546 (parent)
chain: GYRKEQERLGIPYDPIQWSTDQVLHWVVWVMKEFSMTDIDLTTLNISGRELCSLNQEDFFQRVPRGEILWSHLELLRKY

Variants of: B1
Assay: abundance fitness (aPCA) (normalised: wild type 0, dead -1); higher = more abundant; growth selection in yeast, the domain comes from the species named
Conditions: Homo sapiens

Abundance fitness, by site and new letter:
V23: M -0.844, G -0.982, S -0.839, K -0.791, I -0.794, D -0.873, F -0.89, Q -0.9, T -0.058, W -1.04, R -0.724, C -0.53, P -0.909, Y -0.804, H -0.966, L -0.746, A -0.575, E -0.951
E33: D 0.021, K -0.008, T -0.084, I -0.767, Q -0.123, W -0.566, H -0.092, P -0.26, N -0.202, Y -0.257, C -0.276, V -0.277, R -0.031, G -0.196, S -0.1, M -0.337, F -0.375, A -0.139
M36: L 0.043, E -0.031, R -0.029, W -0.118, G -0.182, D -0.019, V -0.013, N -0.189, Q -0.08, A -0.025, F -0.09, Y -0.053, K -0.062, P -0.196, I -0.05, C 0.081, S -0.102, H -0.193
Q22: I -0.899, F -0.792, S -0.646, E 0, Y -0.763, A -0.295, N -0.039, C -0.543, V -0.992, P -0.991, T -0.875, W -1, M -0.219, K -0.787, G -0.88, H -0.052, D -0.072, R -0.998
V28: S -0.035, C 0.039, M 0.016, F -0.129, K 0.085, Q 0.027, R 0.043, D 0.017, A -0.004, W -0.043, H -0.013, E -0.039, I -0.017, G -0.023, N -0.1, P -0.921
V30: S -0.076, I -0.099, T 0.003, M -0.042, E -0.08, Q -0.345, L -0.12, D -0.763, C 0.012, G -0.051, Y -0.492, H -0.134, W -0.339, P -0.822
M31: K -0.089, D -0.794, Y -0.322, C 0.069, Q 0.059, T 0.018, R -0.155, I -0.031, A -0.046, G -0.089, F -0.09, L -0.11, H -0.169, E -0.289, P -1.01, V -0.036, N -0.191
D21: P -0.089, W -0.185, N -0.044, S -0.029, Y -0.27, T -0.114, R -0.096, V -0.172, L -0.414, M -0.134
T37: V -0.1, G -0.004, F -0.019, W -0.115, M -0.028, N -0.027, Q -0.009, D -0.22, K 0.039, E 0.017, H -0.037, S -0.07, P 0.014, A -0.03, R -0.033, C -0.044, I -0.256
S35: R -0.045, Q 0.014, E -0.035, T -0.013, W -0.335, G 0.018, H 0.008, F -0.42, I -0.781, M -0.14, V -0.165, L -0.204, P -0.091, Y -0.205, K -0.028, N -0.009, C -0.044, A -0.086
V27: C -0.073, P -0.668, I -0.059, L -0.194, S -0.171, Y -0.197, E -0.913, W -0.732, G -0.037, D -0.75, K -0.478, M -0.106, H -0.758, F -0.256, N -0.818, Q -0.271, R -0.436, T -0.245
W29: G -0.776, K -0.816, T -0.452, Q -0.724, I -1.09, E -0.701, Y -0.106, H -0.404, S -0.439, D -0.57, V -0.939, R -0.9, F -0.279, L -0.815, A -0.632, C -0.663
D40: H -0.223, C -0.281, Y -0.698, W -0.989, R -0.292, I -0.533, Q -0.268, M -0.543, V -0.44, E -0.112, T -0.263, N -0.043, K -0.23, P -0.111, G -0.239, A -0.226, S -0.124
F34: R -0.035, P -0.605, N 0.081, W -0.092, C -0.068, H 0.077, G -0.117, M -0.175, L -0.145, E -0.056, Y 0.015, S -0.063, T -0.061, K 0.015, Q -0.012, A -0.031
D38: K -0.091, I -0.626, W -0.149, G -0.031, M -0.364, Y -0.261, V -0.364, F -0.492, H -0.055, S -0.063, N -0.082, Q -0.099, T -0.08, A -0.154, R -0.168, P -0.009, E 0.03
W26: C -0.866, N -0.894, E -1, F -0.404, P -0.947, L -0.886, H -0.822, I -0.804, R -0.855, Q -0.875, A -0.904, M -0.976, K -0.906, Y -0.514, T -1.03, S -1.13
K32: P -0.734, E -0.024, N -0.024, I -0.582, R -0.024, S -0.079, Q -0.061, M -0.261, C -0.188, A -0.141, Y -0.172, L -0.443, T -0.01, V -0.36, F -0.41, W -0.419
L41: A -0.049, D -0.386, C -0.056, E -0.153
I39: S -0.275, G -0.185, V 0.037, E -0.118, A -0.192, Q -0.22, T -0.035, K -0.244, C -0.042, R -0.281, W -0.145, H -0.06, Y -0.317, N -0.07, M -0.021, D -0.288, F -0.011, P -0.17
L24: A -0.083, I -0.091, M -0.011, E -0.088, C 0.003, K -0.038, F -0.119, N -0.075, P -1, D -0.171, G -0.109, H 0.029, Y -0.278, T -0.056, S -0.104
H25: F -0.194, D -0.209, I -0.138, S -0.27, R -0.304, G -0.207, L -0.167, A -0.25, N -0.048, W -0.393, Q -0.304, Y -0.002, P -0.942, C -0.266, V -0.219, M -0.303, T -0.12
